From US20240408138A1 (UNIVERSITY OF CHICAGO, published 2024)
Where a chain is given by its changes, count along the chain named.

B1: INC-N-01 (Fab, V domains shown)
VH: EVQLVESGGGLVQPGGSLRLSCAASGFNVYYYSIHWVRQAPGKGLEWVASIYPSSGSTYYADSVKGRFTISADTSKNTAYLQMNSLRAEDTAVYYCARQWLYMLWPMWGLDYWGQGTLVTVSS
VL: DIQMTQSPSSLSASVGDRVTITCRASQSVSSAVAWYQQKPGKAPKLLIYSASSLYSGVPSRFSGSRSGTDFTLTISSLQPEDFATYYCQQSYYWPITFGQGTKVEIKR
notes: also called INC-N-01 Fab
B2: INC-N-14 (Fab, V domains shown)
VH: EVQLVESGGGLVQPGGSLRLSCAASGFNVSSYSIHWVRQAPGKGLEWVASIYPSSGSTYYADSVKGRFTISADTSKNTAYLQMNSLRAEDTAVYYCARKGYGWFYYYIEWYSPYAFDYWGQGTLVTVSS
VL: B1 VL with W94Y, I96V
notes: light chain shared with INC-N-18; also called INC-N-14 Fab
B3: INC-N-12 (Fab, V domains shown)
VH: EVQLVESGGGLVQPGGSLRLSCAASGFNFSSSSIHWVRQAPGKGLEWVASIYSYSGSTYYADSVKGRFTISADTSKNTAYLQMNSLRAEDTAVYYCARYHWYYYWYWGGVSPAMDYWGQGTLVTVSS
VL: B1 VL with S91M, Y92R, W94Y
notes: also called INC-N-12 Fab
B4: INC-N-19 (Fab, V domains shown)
VH: EVQLVESGGGLVQPGGSLRLSCAASGFNVYYSYIHWVRQAPGKGLEWVASIYPYSGYTSYADSVKGRFTISADTSKNTAYLQMNSLRAEDTAVYYCARWRWPGLQFGYGMDYWGQGTLVTVSS
VL: B1 VL with Y93W, I96L
notes: also called INC-N-19 Fab
B5: INC-N-08 (Fab, V domains shown)
VH: EVQLVESGGGLVQPGGSLRLSCAASGFNFSSSSIHWVRQAPGKGLEWVASIYSYYGSTSYADSVKGRFTISADTSKNTAYLQMNSLRAEDTAVYYCARWMYKGYIFYQYFGLDYWGQGTLVTVSS
VL: B1 VL with Y92F, Y93S, W94N, P95L
notes: also called INC-N-08 Fab
B6: INC-N-35 (Fab, V domains shown)
VH: EVQLVESGGGLVQPGGSLRLSCAASGFNFYSYSIHWVRQAPGKGLEWVASISSSSGSTSYADSVKGRFTISADTSKNTAYLQMNSLRAEDTAVYYCARHFHNPYSWDYWYGWYTALDYWGQGTLVTVSS
VL: B1 VL with Y92S, Y93S, W94S, P95L
notes: also called INC-N-35 Fab
B7: INC-N-34 (Fab, V domains shown)
VH: EVQLVESGGGLVQPGGSLRLSCAASGFNVSSSSIHWVRQAPGKGLEWVASIYPSSGYTSYADSVKGRFTISADTSKNTAYLQMNSLRAEDTAVYYCARKLAYYWGAQWSYSGYKGMDYWGQGTLVTVSS
VL: B1 VL with Y93W, W94Y
notes: also called INC-N-34 Fab
B8: INC-N-06 (Fab, V domains shown)
VH: EVQLVESGGGLVQPGGSLRLSCAASGFNISYSSIHWVRQAPGKGLEWVASIYPYSGSTYYADSVKGRFTISADTSKNTAYLQMNSLRAEDTAVYYCARWSLYGKWYYWWYGLDYWGQGTLVTVSS
VL: B1 VL with S91G, Y92S, W94Y
notes: also called INC-N-06 Fab
B9: INC-N-16 Fab (Fab, V domains shown)
VH: EVQLVESGGGLVQPGGSLRLSCAASGFNFYSSSIHWVRQAPGKGLEWVASIYPYSGYTSYADSVKGRFTISADTSKNTAYLQMNSLRAEDTAVYYCARAWIYAMDYWGQGTLVTVSS
VL: B1 VL with S91W, Y92D, Y93Q, P95L
B10: INC-N-13 (Fab, V domains shown)
VH: EVQLVESGGGLVQPGGSLRLSCAASGFNVSYYSIHWVRQAPGKGLEWVASIYPYSGSTYYADSVKGRFTISADTSKNTAYLQMNSLRAEDTAVYYCARYPYYVYWYYWWYYALDYWGQGTLVTVSS
VL: B1 VL with Y92W, Y93S, W94Y
notes: also called INC-N-13 Fab
B11: INC-N-38 (Fab, V domains shown)
VH: EVQLVESGGGLVQPGGSLRLSCAASGFNVYSSSIHWVRQAPGKGLEWVAYISSYSGYTYYADSVKGRFTISADTSKNTAYLQMNSLRAEDTAVYYCARTIYSSSYFYTWFIYGAAFDYWGQGTLVTVSS
VL: B1 VL with Y92W, Y93M, W94Y
notes: also called INC-N-38 Fab
B12: INC-N-04 (Fab, V domains shown)
VH: EVQLVESGGGLVQPGGSLRLSCAASGFNFYSYSIHWVRQAPGKGLEWVASIYSYSGYTYYADSVKGRFTISADTSKNTAYLQMNSLRAEDTAVYYCARYPLYFQYRKYYGIDYWGQGTLVTVSS
VL: B1 VL with S91G, Y92W, W94Y
notes: also called INC-N-04 Fab
B13: INC-N-11 (Fab, V domains shown)
VH: EVQLVESGGGLVQPGGSLRLSCAASGFNVSYYSIHWVRQAPGKGLEWVASIYPSSGSTYYADSVKGRFTISADTSKNTAYLQMNSLRAEDTAVYYCARMYPSWMLYPYYMFAGMDYWGQGTLVTVSS
VL: B1 VL with S91R, Y92W, Y93V, W94Y
notes: also called INC-N-11 Fab

Target: T1, INCENP N-terminal domain (1-58), His- and Avi-tagged, biotinylated (UniProt Q9NQS7 1-58, biotinylated (Avi-tag, co-expressed E. coli biotin ligase BirA))
T1 construct: range 1-58; Expressed in E. coli BL21(DE3); also called INC-N; INCENP N-terminal domain (AA 1-58); not shown: His-tag and Avi-tag
T1 sequence (looked up): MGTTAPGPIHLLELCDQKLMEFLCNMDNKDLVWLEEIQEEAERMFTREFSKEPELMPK
Assay: single-point protein ELISA, 200 nM Fab on 50 nM immobilised biotinylated target, protein L-HRP, A450
Procedure: To rapidly reconfirm the binding and specificity of the obtained Fabs after reformatting into the expression vectors single-point Fab ELISA was performed (FIG. 2). Briefly, 50 nM Avi-tagged targets were immobilized on the prepared NAV-coated and blocked with 0.5% BSA in PBS 96-well ELISA plates. The target coated plates were washed with appropriate buffer (TBST or PBST) and were incubated with 200 nM Fab for 20 minutes and then washed. The washed plates were incubated with protein L conjugated with HRP (1:5000 diluted in TBST) for 30 minutes. Plates were washed and the reaction was developed using the TMB chromogenic substrate (Thermofisher) and subsequently quenched with 1M HCl. Absorbance was read at 450 nm on Epoch plate reader.

Row | Binder | binding result
1 | B1 | binds
2 | B2 | binds
3 | B3 | binds
4 | B4 | binds
5 | B5 | binds
6 | B6 | binds
7 | B7 | binds

Target: T2, INCENP on the surface of murine tumor cells (Mus musculus, UniProt Q9WU62)
T2 construct: kept apart from m4 because the cells are murine; also called cell surface INCENP on CT26, MC38 and 4T1 cells
T2 sequence (single chain, looked up): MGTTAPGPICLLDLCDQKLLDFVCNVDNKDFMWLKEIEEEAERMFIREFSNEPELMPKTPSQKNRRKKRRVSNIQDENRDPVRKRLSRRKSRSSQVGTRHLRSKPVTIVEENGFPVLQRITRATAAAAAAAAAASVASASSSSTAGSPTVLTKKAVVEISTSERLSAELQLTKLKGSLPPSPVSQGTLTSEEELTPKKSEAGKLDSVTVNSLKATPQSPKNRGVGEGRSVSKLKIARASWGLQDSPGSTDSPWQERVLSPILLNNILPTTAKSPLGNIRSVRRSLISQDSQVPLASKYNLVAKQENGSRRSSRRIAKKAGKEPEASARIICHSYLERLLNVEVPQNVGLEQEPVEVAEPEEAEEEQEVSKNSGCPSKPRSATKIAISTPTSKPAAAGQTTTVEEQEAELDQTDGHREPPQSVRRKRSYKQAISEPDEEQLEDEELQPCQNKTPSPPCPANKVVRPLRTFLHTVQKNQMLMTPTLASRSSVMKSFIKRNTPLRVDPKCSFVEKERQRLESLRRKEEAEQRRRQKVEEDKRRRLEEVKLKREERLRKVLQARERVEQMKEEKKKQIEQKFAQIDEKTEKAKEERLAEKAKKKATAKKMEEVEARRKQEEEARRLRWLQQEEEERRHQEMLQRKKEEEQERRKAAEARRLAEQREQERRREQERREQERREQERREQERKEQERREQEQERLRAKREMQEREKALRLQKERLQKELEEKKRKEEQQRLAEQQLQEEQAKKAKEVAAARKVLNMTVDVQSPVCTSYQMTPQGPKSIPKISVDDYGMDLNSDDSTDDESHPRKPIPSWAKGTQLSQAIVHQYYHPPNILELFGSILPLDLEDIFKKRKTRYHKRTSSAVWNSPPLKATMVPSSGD
Assay: flow cytometry, 200 nM Fab on CT26 murine colorectal carcinoma cells, anti-human F(ab')2-A647 secondary, MFI [CT26]
Procedure: (§1) Human or murine tumor cells were trypsinized, washed and resuspended in Flow buffer (1×PBS supplemented with 2% FBS) and added to a 96-well plate (#3799, Costar). 200 nM primary CPC Fab was mixed with 0.5M cells and incubated at 37 C for 20 min. Cells were washed with Flow buffer and stained with anti-human-FAB′2-A647 secondary antibody (#109-605-006, Jackson, 1:200) for 20 min at room temperature and washed again. Samples were analyzed by flow cytometry using CytoFLEX (Beckman Coulter) and mean fluorescence intensity (MFI) data was extracted using the FlowJo software (FIG. 4A-E, FIG. 5). Human peripheral blood mononuclear cells (PBMCs) derived from a single patient were used as a source of healthy human cells. PBMCs were counted, split and spun down 400×g 5 min. Cells were resuspended in Flow buffer (1×PBS supplemented with 2% FBS) and pre-incubated with TruStain FcX (1:20, Biolegend 422302) for 10 min at 37 C, followed by 200 nM primary Fab incubation at 37 for 20 min. Cells were washed twice and stained with secondary antibody (Alexa Fluor 647 AffiniPure Goat Anti-Human IgG, F(ab′)2 fragment specific, #109-605-006, Jackson, 1:200), for 20 min at RT, washed twice and analyzed by using CytoFLEX (Beckman Coulter). Mean fluorescence intensity (MFI) data was extracted using the FlowJo software (FIG. 4F).

Row | Binder | binding result
8 | B8 | binds

Target: T1, INCENP N-terminal domain (1-58), His- …
Assay: western blot, recombinant INC-N on SDS-PAGE / PVDF, INC-N-16 Fab as primary, anti-human F(ab')2 IgG-HRP secondary
Procedure: (§2) Membranes were stained with Ponceau S dye to verify correct transfer of the proteins, were briefly washed with ddH2O and blocked with 4% skimmed milk in TBS-T containing 0.05% Tween20 for 30 min. at RT on the shaker. […] Membranes were washed 3 times with TBS-T and incubated with secondary anti-human FAB′2 specific HRP-conjugated IgG (diluted 1:10,000 in blocking buffer) for 45 minutes at RT, shaking. Membranes were washed again 3× with TBS-T, developed with ECL chemiluminescent substrate and visualized with the Biorad imaging instrument (FIG. 11).

Row | Binder | binding result
9 | B9 | binds

Target: T3, INCENP FL (Homo sapiens, UniProt Q9NQS7)
T3 construct: full length, denatured on SDS-PAGE and blotted; also called full-length INCENP in HeLa cell lysate
Assay: western blot, HeLa cell lysate on SDS-PAGE / PVDF, INC-N-16 Fab as primary, anti-human F(ab')2 IgG-HRP secondary
Procedure: as §2

Row | Binder | binding result
10 | B9 | binds

Target: T4, INCENP displayed on the surface of cancer cells (UniProt Q9NQS7 1-918, limits assumed)
T4 construct: whole, on cells; The sentence says 'various cancer cell lines'; also called cell surface INCENP
Assay: flow cytometry, 200 nM Fab on MDA-231 breast cancer cells, anti-human F(ab')2-A647 secondary, MFI
Procedure: as §1

Row | Binder | binding result
11 | B6 | binds

Target: T1, INCENP N-terminal domain (1-58), His- …
Assay: SPR, target immobilised on NTA chip via His-tag, two-fold Fab dilutions from 100 nM, 1:1 Langmuir fit
Procedure: The targets were immobilized onto a nitrilotriacetic acid (NTA) sensor chip via His-tag. 2-fold serial dilutions of the Fab were injected following ligand immobilization on the sensor chip. For each kinetic assay at least five dilutions of the Fab were tested. The data were fitted using 1:1 Langmuir Model to obtain the on-rate, off-rate and the affinity (KD) of the Fab-target interaction. (FIG. 3).

Row | Binder | Kd [nM] | koff [s⁻¹] | kon [M⁻¹ s⁻¹]
12 | B10 | 20 | 0.0029 | 140000
13 | B11 | 1.2 | 0.0005 | 420000
14 | B12 | 14.8 | 0.011 | 760000
15 | B8 | 6.3 | 0.0049 | 770000
16 | B13 | 4.2 | 0.0031 | 740000

Target: T4, INCENP displayed on the surface of …
Assay: flow cytometry, 200 nM Fab on MCF7 breast cancer cells, anti-human F(ab')2-A647 secondary, MFI
Procedure: as §1

Row | Binder | binding result
17 | B7 | binds
